The data set is described as follows: self-splicing fitness, log relative to wild type (ln ratio); higher = more splicing; Tetrahymena group I intron in knt gene, E. coli kanamycin selection, DiMSum; sequences stand for … in CUCUCU…GGAGGGAAAAGUUAUCAGGCAUGCACCUGGUAGCUAGUCUUUAAACCAAUAGAUUGCAUCGGUUUAAAAGGCAAGACCGUCAAAUUGCGGGAAAGGGGUCAACAGCCGUUCAGUACCAAGUCUCAGGGGAAACUUUGAGAUGGCCUUGCAAAGGGUAUGGUAAUAAGCUGACGGACAUGGUCCUAACCACGCAGCCAAGUCCUAAGUCAACAGAUCUUCUGUUGAUAUGGAUGCAGUUCACAGACUAAAUGUCGGUCGGGGAAGAUGUAUUCUUCUCAUAAGAUAUAGUCGGACCUCUCCUUAAUGGGAGCUAGCGGAUGAAGUGAUGCAACACUGGAGCCGCUGGGAACUAAUUUGUAUGCGAAAGUAUAUUGAUUAGUUUUGGAGUACUCGUGGUCG
The procedure, abridged:
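Six replicate transformations of E. coli BL21(DE3) with a pET-22b(+) library were grown overnight at 37°C or 30°C. The library randomised all eight P1ex-region intron nucleotides, the intron lying in the knt kanamycin-resistance gene, and plates were LB agar with or without 25 μg/mL kanamycin plus 100 μg/mL carbenicillin, 50 μM IPTG and 0.2% rhamnose. Pooled colonies were amplicon-sequenced on an Illumina HiSeq 2500, and fitness is the DiMSum error-weighted combination of wild-type-normalised replicate fold changes, kanamycin versus none.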

± gives the uncertainty stated by the source.

With GCACAGCAAUAUUACGCUAG, the “self-splicing fitness (ln)” value runs as follows: (30 °C) -1.9 ± 0.082; (37 °C) -1.18 ± 0.078.

On to GCACAGCAAUAUUACGCUCC, for which the “self-splicing fitness (ln)” value (30 °C) is -1.27 ± 0.16 and the “self-splicing fitness (ln)” value (37 °C) came to 0.155 ± 0.17.

On to GCACAGCAAUAUUACGGAAU, for which the “self-splicing fitness (ln)” value was -1.08 ± 0.076 (30 °C) and -0.95 ± 0.095 (37 °C).

Turning to GCACAGCAAUAUUACGGACA, the “self-splicing fitness (ln)” value by setting is: (30 °C) -1.02 ± 0.1; (37 °C) -0.584 ± 0.11.

GCACAGCAAUAUUACGGAGA: the “self-splicing fitness (ln)” value runs as follows: (30 °C) -2.85 ± 0.12; (37 °C) -2.16 ± 0.13.

In the case of GCACAGCAAUAUUACGGCGC, the “self-splicing fitness (ln)” value was -1.54 ± 0.1 (30 °C) and -0.777 ± 0.12 (37 °C).

On to GCACAGCAAUAUUACGGUAC, for which the “self-splicing fitness (ln)” value reads like this: (30 °C) -1.17 ± 0.096; (37 °C) -0.285 ± 0.1.

In the case of GCACAGCAAUAUUACGGUCC, the “self-splicing fitness (ln)” value (30 °C) is -0.798 ± 0.062 and the “self-splicing fitness (ln)” value (37 °C) is 0.0593 ± 0.082.

GCACAGCAAUAUUACGGUGC: the “self-splicing fitness (ln)” value (30 °C) is -3.09 ± 0.2 and the “self-splicing fitness (ln)” value (37 °C) was -2.61 ± 0.23.

For GCACAGCAAUAUUACGUAUU, the “self-splicing fitness (ln)” value runs as follows: (30 °C) -1 ± 0.047; (37 °C) -0.335 ± 0.057.

GCACAGCAAUAUUACGUCCA: the “self-splicing fitness (ln)” value (30 °C) is -0.954 ± 0.12 and the “self-splicing fitness (ln)” value (37 °C) is -0.96 ± 0.11.

For GCACAGCAAUAUUACGUCUA, the “self-splicing fitness (ln)” value was -0.8 ± 0.06 (30 °C) and -0.367 ± 0.063 (37 °C).

With GCACAGCAAUAUUACGUCUG, the “self-splicing fitness (ln)” value reads like this: (30 °C) -2.53 ± 0.1; (37 °C) -1.27 ± 0.11.

As to GCACAGCAAUAUUACGUUCU, the “self-splicing fitness (ln)” value runs as follows: (30 °C) -0.579 ± 0.054; (37 °C) -0.524 ± 0.068.

For GCACAGCAAUAUUACGUUUG, the “self-splicing fitness (ln)” value by setting is: (30 °C) -1.62 ± 0.066; (37 °C) -1.08 ± 0.089.

As to GCAGAGCAAUAUUACGACCU, where the note is “37 °C”, the “self-splicing fitness (ln)” value is -1.59 ± 0.42.

Take GCAGAGCAAUAUUACGCACG: the “self-splicing fitness (ln)” value is -4.51 ± 0.42 (30 °C) and -2.05 ± 0.23 (37 °C).

As for GCAGAGCAAUAUUACGCAGC, the “self-splicing fitness (ln)” value (30 °C) was -2.42 ± 0.47.

On to GCAGAGCAAUAUUACGCAUU, for which the “self-splicing fitness (ln)” value was -3.11 ± 0.16 (30 °C) and -2.3 ± 0.2 (37 °C).

Turning to GCAGAGCAAUAUUACGCCGG, the “self-splicing fitness (ln)” value runs as follows: (30 °C) -2.85 ± 0.45; (37 °C) -0.641 ± 0.35.

As for GCAGAGCAAUAUUACGCUGC, the “self-splicing fitness (ln)” value is, setting by setting: (30 °C) -3.42 ± 0.48; (37 °C) -1.76 ± 0.33.

GCAGAGCAAUAUUACGGAAA: the “self-splicing fitness (ln)” value (37 °C) is -2.15 ± 0.43.

Turning to GCAGAGCAAUAUUACGGAGC, the “self-splicing fitness (ln)” value is -2.89 ± 0.28 (30 °C) and -2.84 ± 0.28 (37 °C).

As for GCAGAGCAAUAUUACGGCAG, the “self-splicing fitness (ln)” value reads like this: (30 °C) -2.87 ± 0.23; (37 °C) -1.18 ± 0.25.

Consider GCAGAGCAAUAUUACGGCUG, for which the “self-splicing fitness (ln)” value (30 °C) is -2.42 ± 0.25.

As for GCAGAGCAAUAUUACGGGUG, the “self-splicing fitness (ln)” value is, setting by setting: (30 °C) -2.91 ± 0.22; (37 °C) -1.82 ± 0.16.

Regarding GCAGAGCAAUAUUACGGUAA, the “self-splicing fitness (ln)” value by setting is: (30 °C) -3.52 ± 0.27; (37 °C) -2.36 ± 0.21.

Turning to GCAGAGCAAUAUUACGGUAG, the “self-splicing fitness (ln)” value runs as follows: (30 °C) -1.82 ± 0.27; (37 °C) -0.285 ± 0.44.

Turning to GCAGAGCAAUAUUACGUCCG, the “self-splicing fitness (ln)” value (30 °C) is -2.57 ± 0.14 and the “self-splicing fitness (ln)” value (37 °C) is -2.51 ± 0.17.

As to GCAGAGCAAUAUUACGUCUU, the “self-splicing fitness (ln)” value is, setting by setting: (30 °C) -0.897 ± 0.12; (37 °C) -2.22 ± 0.21.

GCAGAGCAAUAUUACGUUCA: the “self-splicing fitness (ln)” value by setting is: (30 °C) -2.06 ± 0.13; (37 °C) -0.713 ± 0.1.

With GCAGAGCAAUAUUACGUUGC, the “self-splicing fitness (ln)” value (37 °C) is -1.06 ± 0.43.

Take GCAGAGCAAUAUUACGUUUU: the “self-splicing fitness (ln)” value is, setting by setting: (30 °C) -3.54 ± 0.17; (37 °C) -3.12 ± 0.2.

Take GCAUAGCAAUAUUACGACCA: the “self-splicing fitness (ln)” value is, setting by setting: (30 °C) -0.207 ± 0.11; (37 °C) -0.544 ± 0.14.

As for GCAUAGCAAUAUUACGAUGU, the “self-splicing fitness (ln)” value (30 °C) was -2.82 ± 0.13 and the “self-splicing fitness (ln)” value (37 °C) is -2.31 ± 0.17.

Turning to GCAUAGCAAUAUUACGAUUA, the “self-splicing fitness (ln)” value was -1.47 ± 0.18 (30 °C) and 0.017 ± 0.15 (37 °C).

Consider GCAUAGCAAUAUUACGCAAU, for which the “self-splicing fitness (ln)” value is, setting by setting: (30 °C) -2.37 ± 0.11; (37 °C) -1.77 ± 0.12.

On to GCAUAGCAAUAUUACGCAGU, for which the “self-splicing fitness (ln)” value (30 °C) is -4.08 ± 0.17 and the “self-splicing fitness (ln)” value (37 °C) was -1.81 ± 0.12.

Turning to GCAUAGCAAUAUUACGCCGA, the “self-splicing fitness (ln)” value (37 °C) was -2.37 ± 0.25.

As for GCAUAGCAAUAUUACGCCGU, the “self-splicing fitness (ln)” value (30 °C) is -3.07 ± 0.15 and the “self-splicing fitness (ln)” value (37 °C) is -1.83 ± 0.14.

(Values after the supplement of paper PMC7877785.)
